Experimental data: the DeepSol protein solubility set

Assay: soluble on expression in E. coli; label from the status in PepcDB or PDB records

| Sequence | soluble on expression in E. coli |
| --- | --- |
| MIDLYFAPTPNGHKITLFLEEAELDYRLIKVDLGKGGQFRPEFLRISPNNKIPAIVDHSPADGGEPLSLFESGAILLYLAEKTGLFLSHETRERAATLQWLFWQVGGLGPMLGQNHHFNHAAPQTIPYAIERYQVETQRLYHVLNKRLENSPWLGGENYSIADIACWPWVNAWTRQRIDLAMYPAVKNWHERIRSRPATGQALLKAQLGDERSDS | soluble |
| HHHHHHQVQLVQSGAEVKKPGASVKVSCQASGYRFSHFTVHWVRQAPGQRFEWMGWINPYNGNKEFSAKFQDRVTFTADTSANTAYMELRSLRSADTAVYYCARVGEWGWDDSPYDNYYMDVWGKGTTVIVSSGGGGSGGGGSGGGGSEIVLTQAPGTLSLSPGERATFSCRSSHSIRSRRVAWYQHKPGQAPRLVIHGVSNRASGISDRFSGSGSGTDFTLTITRVEPEDFALYYCQVYGASSYTFGQGTKLERK | soluble |
| SAQKEEAAVATEAASQNGEDLENLDDPEKLKELIELPPFEIVTGERLPANFFKFQFRNVEYSSGRNKTFLCYVVEAQGKGGQVQASRGYLEDEHAAAHAEEAFFNTILPAFDPALRYNVTWYVSSSPCAACADRIIKTLSKTKNLRLLILVGRLFMWEEPEIQAALKKLKEAGCKLRIMKPQDFEYVWQNFVEQEEGESKAFQPWEDIQENFLYYEEKLADILK | soluble |
| MFSIQIPALHGKYLREVLESIREQTFQDYEVVVVNSGGGVISDIVHEYGFKEVRKDVKLLEARYLANKESRGDYAFLLDETRPLRKDALEILSKNLHDMVIIGERELGDSFWSRAAQLDKENIMECNSPEAVRGFALPRLFKRELLTASLEKLRENLREKFSQVVFPDHELIYYEASGFSNDIFVIKDELVYHYGDFTLKEIVRKYYRYGKSLKVLKDTPYSFMTSVSRKRREICVGGIKGRLTLYILYLARGIPFLFGKFSLLEHHHHHH | soluble |
| MQTENKTSPYYRTKLRGLYTTAKADAEAECSILRRALDKIAEIKSLLEERRIAARMAGVYSDNDPPRKTMRRGVLMTLLQQSAMTLPLWIGKPGESPPPLCGAIPASSDYVAKQGDKVAARVKAVDGDEQWILAEVVSYNHSTNKYEVDDIDEEGKERHTLSRRRIIPLPQWEANPETDPEALFSKDQLVLALYPQTTCFYRALIHTPPHRPQDDYSVLFEDTSYADGYSPPLNVAQRYVVACKENKKK | not soluble |
| MRIALIIFPIHASHGCILQTYALYRTLRKLGHDVSIIDRQWDKLSLKNQLVYAVKSLIISIKRKCIRPLTIEGTRKIIMSELQTFVDKHLSNRKIYFRTPRYEELPHYDAFIVGSDQTWRPKYVSDILYYYLCFVPAEEKVKRIAYAPSFGTEEWEYSEQQTLQCRELVSRFDAIAVREDSGAKLCGKYLGINVEHVLDPTMLLNKEDYLSETGIMPSEQNRLSYYLLDNSKSKMQIVEEICKELHLTVQRINTETENHKAGIKERVAPSIEKWIEGFVNSKFIVADSFHATVFAIIFNKHFITIANKDRGIARFESLLKMFGLENRLITDIRQVTPELVHESIDWGKVNQTMWAKQSSSLDYLKFNLGNI | not soluble |
| MDQNLKEQILELKRQKNAIILAHYYQRPEVQEIADFIGDSYNLSKIAKENDADTIVFCGVKFMAESAKVLSPQKKVLLPQPKAGCPMADMADAEGLAALKAKHPNAKVVSYINSSVEVKALCDTCCTSSNAAKIVKRIDSDEIIFLPDKNLGSYVQEMVPEKNIILWDGFCKVHNMIIPTDIEEMKNKYGDMKILAHPECWKPVRDMADFIGSTGAMIDYAEKDTTSDKYLVVTETGIMYKMQERVPNKTFYPLRSMVCVNMKATHLEDVYNSLVNSTFEINIEENLRQKALTSLENMLILGRLEHHHHHH | not soluble |
| MGNAGESKKSNSDSAKGEEKASGSLTISGSSAMQPLVLAAAEKFMEENPDADIQVQAGGSGTGLSQVSEGAVQIGNSDVFAEEKEGIDAKALVDHQVAVVGMAAAVNPDAGVKDISKDELKKIFTGKIKNWKELGGKDQKITLVNRPDSSGTRATFVKYALDGAEPAEGITEDSSNTVKKIIADTPGAIGYLAFSYLTDDKVTALSIDGVKPEAKNVATGEYPIWAYQHSYTKGEATGLAKEFLDYLKSEDIQKSIVTDQGYIPVTDMKVTRDANGKQSLEHHHHHH | not soluble |
| GGNSKSRNDRTETVDKEVIKAPEFDADSAYQYIQVQADFGPRVPNTQAHKECGEYLAGQLEKFGAKVYNQYADLIAYDGTILKSRNIIGAYKPESKKRILLCAHWDSRPYADNDPDPKNHHTPILGVNDGASGVGVLLEIARQIQKEQPALGIDIVFFDSEDYGIPEFYDGKYKQDTWCLGSQYWARTPHVQNYNARYGILLDMVGGKDATFYYEGYSARTARSEMKKIWKKAHELGYGKYFVKEDGGETVDDHIYVNKLARIPCVDIINYDAGNPQSSFGSFWHTVNDTMENIDRNTLKAVGQTVMDVIYNEK | soluble |
| MKNWLAYINSLHSREIDLGLSRITSLAEKLSLNNFACPVVTVAGTNGKGSVVKSLESIYLAAGYKVAAYTSPHLLQFNERLRLNGEPATDELFIEAFKFIEDNRNHQPLSFFEFTTLAIFYICKKQNLDILLLEVGLGGRLDAVNIVEPDVAVITTIDIDHTDWLGEDRESIGREKAGIIRRHKPVIGGDPNLPNSVYEQVHLLEAPFYQLEKDFFAVSTKENWQWQGPTQDYQGLPLPSLKIENIATSLMVIHCLQSQLPVSQHSLIAGIKNAVLPGRFEWIQTPAPIVFDVAHNPQATAYLSEQLRKTDHAGRTLGVVGMLRDKDIPGALKPMLPCIDQWYAGTLSESRGATSANLQNVLSELQVENCYNFDSVADAFKKAVEDCRPQDRIVVFGSFYTVAMAKEVLLGGENGN | soluble |
| MNADKFVETTISDFMRLNSSRDFEYFVSIAKQLYSRGCRDYYTEAFLTHLKTIFPITEENAEKWLKYGEMLGTVGEKDFRTDIFEQMMKDFVDSNKLSQIAAKFHGFVESVDDWNLLAECLFSRVRALEHKINLTASAPMATDPSESSC | not soluble |
| MSLKTYDAFPEPIGGYTVGRTQMDFEYTASDHSKRELTAFVYYPSDSSEGKTTSTYMFPEVYEMFNEQPLVTALKDVFSIDIKTQCYDDLALSGKEKRYPVLFYVCGGGGSPEWGTVICTDLASMGYVVVSIGHQNSTMYKRKDGRLFNVSKDFSDVIMAFSEDPEMLALAGKMEMRPDDETAIEMCHNVLTLPILAKLTEYSELQAEDVRYVADYLYKLDSGELNSIFKGRLLLDIGMGIVGHSYGGPTTAIVCRDDDRFACGIGLDSGAFGLLDSDLKKPFLLLFCEPNYNMNAIIGANNSMETYYFSVDRVAHLDYCDIVFTSVNEELRGERDAMEMRNLVTDYTKNFFDHYILLKAASVESLAYDGVDLIKKTSNKEGHHHHHH | soluble |
| MHCPFCFAVDTKVIDSRLVGEGSSVRRRRQCLVCNERFTTFEVAELVMPRVVKSNDVREPFNEEKLRSGMLRALEKRPVSSDDVEMAINHIKSQLRATGEREVPSKMIGNLVMEQLKKLDKVAYIRFASVYRSFEDIKEFGEEIARLED | soluble |
| MAMGQLQHGIDDENATKQTQKYRDAEQSKKTAYDQAVAAAKAILNKQTGSNSDKAAVDRALQQVTSTKDALNGDAKLAEAKAAARQNLGTLNHITNAQRTALEGQINQATTVDGVNTVKTNANTLDGAMNSLQGAINDKDATLRNQNYLDADESKRNAYTQAVTAAEGILNKQTGGNTSKADVDNALNAVTRAKAALNGAENLRNAKTSATNTINGLPNLTQLQKDNLKHQVEQAQNVVGVNGVKDKGNLEHHHHHH | soluble |
| MTVDSPILTDTLVVGGGQAGIAMSEHLTGQGVPHIVLERDRIAQRWRTGRWDSLVANGPAWHDRFPGLEFEGLDPDGFASKDAVADYLEAYARKFNAPIRTGVEVVRAERNGGRYGFTVETSAGTYEAQRIVVATGPFQRPVIPAIAPRDPALTQIHSADYRNPGQLPEGAVLVIGAGSSGVQIADELQRAGREVYLSVGPHDRPPRRYRGRDFCWWLGVLGLWDQETVQPGREHVTIAVSGTDGGRTIEFRALAHQGITLVGVTKSFRDGVVAFENDLAENVARGDANHFALLDAADAYIARNGLSLPDEPQARRVPPDPACMTEPILQLDLAAANVTSIIWATGYAAEYGWLNVDAFDANGKPRHQRGVSSEPGVYFLGLPWLSRRGSAFLWGVWHDAKHIAGHIAMQRNYLSYPDFGQSQQLEHHHHHH | soluble |
